Data as given in US20200071424A1 (SHIONOGI, published 2020).
Where a chain is given by its changes, count along the chain named. Like-named read-outs stand apart in the source and are kept apart here.

How the values were obtained:
baboon EL [1] = target: baboon EL (baboon); assay: cell-based or functional assay
cynomolgus monkey EL [2] = target: cynomolgus monkey EL (cynomolgus monkey); assay: cell-based or functional assay
rabbit EL = rabbit EL (rabbit); assay: cell-based or functional assay
[3] = target: human-mouse chimeric EL (construct not specified); assay: cell-based or functional assay
cynomolgus monkey EL [4] = target: T1, cynomolgus monkey EL (cynomolgus monkey); assay: Biacore; EL captured by anti-C2-tag Ab; bivalent fit
T1 construct: Heparin extract; also called cynomolgus EL; Cynomolgus EL
Protocol: (§1) The binding affinities of anti-EL antibodies were measured using Biacore. […] Then, anti-EL antibodies were added and the binding affinities were calculated by bivalent fitting of BIAevaluation software.

cynomolgus monkey EL [5] = target: T1, cynomolgus monkey EL; assay: ELISA: antibody captured on anti-mouse IgG-Fc plate, EL heparin extract added, detection with biotin anti-C2-tag antibody and HRP-streptavidin, A450
Protocol: (§2) Assay buffer containing 15 μl of anti-EL antibody was added to anti-mouse IgG-Fc antibody-immobilized microtiter plate, and incubated for 2 hr. […] After washing the wells three times with 90 μL of washing buffer, 15 μl of assay buffer containing biotin-labeled anti-C2-tag antibody and HRP-labeled Streptavidin were added to the wells and incubated at room temperature for 1 hr. After washing the wells three times with 90 μL of washing buffer, 15 μL of TMB+—Substrate—Chromogen (DAKO) was added and incubated at room temperature for 30 min and then 15 μL of 0.05 M H2SO₄ was added and absorbance at 450 nm was measured (FIG. 3A to 3K).

mouse EL = target: T2, mouse EL (mouse, UniProt Q9WVG5 21-500); assay: as above
T2 construct: Heparin extract
T2 sequence (looked up): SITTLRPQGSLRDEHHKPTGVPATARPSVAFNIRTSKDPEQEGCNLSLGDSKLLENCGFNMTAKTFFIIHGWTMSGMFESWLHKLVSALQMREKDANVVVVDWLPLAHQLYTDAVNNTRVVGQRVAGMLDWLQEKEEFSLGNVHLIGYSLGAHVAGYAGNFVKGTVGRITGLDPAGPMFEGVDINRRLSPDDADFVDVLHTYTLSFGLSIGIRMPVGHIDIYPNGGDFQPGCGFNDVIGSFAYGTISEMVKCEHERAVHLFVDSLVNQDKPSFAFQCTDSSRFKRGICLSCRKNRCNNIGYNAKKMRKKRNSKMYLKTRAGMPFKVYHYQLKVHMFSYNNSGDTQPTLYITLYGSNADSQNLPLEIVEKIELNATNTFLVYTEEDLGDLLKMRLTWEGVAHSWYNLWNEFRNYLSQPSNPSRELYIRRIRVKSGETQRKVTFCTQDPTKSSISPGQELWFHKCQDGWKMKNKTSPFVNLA
Protocol: as §2

[6] = target: T3, human [1-157]-mouse chimeric EL (human; mouse, UniProt Q9WVG5 158-500); assay: as above
T3 construct: Heparin extract, detected by an anti-C2-tag antibody
T3 sequence: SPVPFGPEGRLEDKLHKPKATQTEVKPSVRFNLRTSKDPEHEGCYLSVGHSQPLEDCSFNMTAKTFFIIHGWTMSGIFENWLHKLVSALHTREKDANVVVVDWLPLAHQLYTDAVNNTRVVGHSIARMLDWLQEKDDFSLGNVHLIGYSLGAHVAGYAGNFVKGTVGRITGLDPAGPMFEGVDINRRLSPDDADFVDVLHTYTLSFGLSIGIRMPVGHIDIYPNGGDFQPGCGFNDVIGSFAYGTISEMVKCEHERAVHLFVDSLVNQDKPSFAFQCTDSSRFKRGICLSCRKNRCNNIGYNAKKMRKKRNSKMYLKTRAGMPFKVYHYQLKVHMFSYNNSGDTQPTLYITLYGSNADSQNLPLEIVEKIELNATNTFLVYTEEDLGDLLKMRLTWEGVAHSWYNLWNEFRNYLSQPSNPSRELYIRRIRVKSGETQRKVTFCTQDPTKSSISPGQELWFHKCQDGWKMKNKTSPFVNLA
Protocol: as §2

[7] = target: T4, human [1-305]-mouse chimeric EL (human; mouse, UniProt Q9WVG5 306-500); assay: as above
T4 construct: Heparin extract, captured or detected by an anti-C2-tag antibody; also called human-mouse chimeric EL
T4 sequence: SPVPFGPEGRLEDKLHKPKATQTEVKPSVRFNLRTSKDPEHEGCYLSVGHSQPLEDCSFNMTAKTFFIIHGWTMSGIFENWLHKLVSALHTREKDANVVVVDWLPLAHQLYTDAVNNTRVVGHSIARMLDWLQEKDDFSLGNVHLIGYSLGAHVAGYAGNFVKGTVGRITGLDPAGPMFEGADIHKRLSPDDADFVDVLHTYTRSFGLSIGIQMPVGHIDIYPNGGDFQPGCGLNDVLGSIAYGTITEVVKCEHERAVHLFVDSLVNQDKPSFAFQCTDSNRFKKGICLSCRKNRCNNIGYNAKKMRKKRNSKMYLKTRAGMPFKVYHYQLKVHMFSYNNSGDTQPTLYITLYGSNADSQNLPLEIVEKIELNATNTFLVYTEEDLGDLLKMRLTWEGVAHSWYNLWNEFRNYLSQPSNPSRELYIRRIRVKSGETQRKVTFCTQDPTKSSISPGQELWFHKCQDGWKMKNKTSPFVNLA
Protocol: as §2

baboon EL [8] = target: T5, baboon EL (baboon); assay: Biacore; EL captured by anti-C2-tag Ab; bivalent fit
T5 construct: Heparin extract
Protocol: as §1

[9] = target: T4, human [1-305]-mouse chimeric EL; assay: as above
Protocol: as §1

baboon EL [10] = target: T5, baboon EL; assay: ELISA: antibody captured on anti-mouse IgG-Fc plate, EL heparin extract added, detection with biotin anti-C2-tag antibody and HRP-streptavidin, A450
Protocol: as §2

[11] = target: T6, human [202-500]-mouse chimeric EL (mouse; human, UniProt Q9WVG5 21-201); assay: as above
T6 construct: Heparin extract, detected by an anti-C2-tag antibody
T6 sequence: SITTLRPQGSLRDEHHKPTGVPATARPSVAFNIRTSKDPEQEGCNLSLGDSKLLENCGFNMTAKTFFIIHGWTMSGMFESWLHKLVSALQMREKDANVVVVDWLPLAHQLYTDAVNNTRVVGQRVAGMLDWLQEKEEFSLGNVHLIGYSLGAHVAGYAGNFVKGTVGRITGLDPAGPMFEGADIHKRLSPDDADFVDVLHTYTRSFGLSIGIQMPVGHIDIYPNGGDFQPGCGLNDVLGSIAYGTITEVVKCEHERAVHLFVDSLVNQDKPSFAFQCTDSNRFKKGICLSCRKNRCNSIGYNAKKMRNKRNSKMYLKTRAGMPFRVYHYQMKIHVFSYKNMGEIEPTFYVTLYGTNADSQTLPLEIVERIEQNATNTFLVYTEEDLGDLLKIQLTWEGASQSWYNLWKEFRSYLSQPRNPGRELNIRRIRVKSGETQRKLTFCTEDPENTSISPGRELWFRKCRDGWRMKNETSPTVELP
Protocol: as §2

[12] = target: T4, human [1-305]-mouse chimeric EL; assay: cell-based or functional assay
cynomolgus monkey EL [13] = target: T1, cynomolgus monkey EL; assay: cell-based or functional assay; remark: listed apart in the source

B1: 19E7 (antibody, mouse IgG2a, V domains shown)
VH: QVQLQQPGSVLVRPGASVKLSCKASGYTFTTYWMHWVKQRPGQGLEWIGEIHPYSGNNNNNEKFKGKATLTVDTSSSTAYVDLSRLTSEDSAVYYCARYDSNYVFAYWGQGTLVTVSA
VL: QIVLTQSPAIMSASPGEGVTITCSASSSVSYMHWFQQKPGTSPKLWIYSTSNLASGVPARFSGSGSGTSYSLTISRMEAEDAATYYCQQRDSYLTFGSGTKLEVK
notes: mouse IgG2a from hybridoma; also called 19E1(19E7)
Neutralizing activity IC50 (baboon EL [1]): 2 nM | Neutralizing activity IC50 (cynomolgus monkey EL [2]): 1.7 nM | Neutralizing activity IC50 (rabbit EL): 5.7 nM | Neutralizing activity IC50 [3]: 2.4 nM | Kd (cynomolgus monkey EL [4]): 3.3 nM | koff (cynomolgus monkey EL [4]): 0.00018 s⁻¹ | kon (cynomolgus monkey EL [4]): 55000 M⁻¹ s⁻¹ | EC50 (read off the curve) (cynomolgus monkey EL [5]): ~30 ng/mL | binding result (mouse EL): no binding (tested: about 330 ng/mL) | binding result [6]: no binding (tested: about 330 ng/mL) | EC50 (read off the curve) [7]: ~6 ng/mL

B2: 14E1 (antibody, mouse IgG1, V domains shown)
VH: QVQLQQSGAELVKPGASVRLSCKASGYTFTKYTIHWVKQRSGQGLEWIGWFYPGSDSIKYNEKFKDKATLTADKSSRTVYMELSRLTSEDSAVYFCARHEEYTNSLAYWGQGTLVTVSA
VL: DIQMTQTTSSLSASLGDRVTISCRASQDISNYLNWYQQQPDGTVKLLIYYTSRLHSGVPSRFSGSGSGTDYSLTISNLEQEDIATYFCQQGYTLPWTFGGGTNLEIK
notes: mouse IgG1 from hybridoma
Neutralizing activity IC50 (baboon EL [1]): 3.3 nM | Neutralizing activity IC50 (cynomolgus monkey EL [2]): 2.4 nM | Neutralizing activity IC50 (rabbit EL): 5.9 nM | Neutralizing activity IC50 [3]: 1.4 nM | Kd (baboon EL [8]): 5.8 nM | koff (baboon EL [8]): 0.00085 s⁻¹ | kon (baboon EL [8]): 150000 M⁻¹ s⁻¹ | Kd (cynomolgus monkey EL [4]): 5.9 nM | koff (cynomolgus monkey EL [4]): 0.00069 s⁻¹ | kon (cynomolgus monkey EL [4]): 120000 M⁻¹ s⁻¹ | Kd [9]: 5.4 nM | koff [9]: 0.00023 s⁻¹ | kon [9]: 42000 M⁻¹ s⁻¹ | EC50 (read off the curve) (baboon EL [10]): ~20 ng/mL | EC50 (read off the curve) (cynomolgus monkey EL [5]): ~10 ng/mL | EC50 (read off the curve) [7]: ~7 ng/mL | EC50 (read off the curve) [11]: ~20 ng/mL

B3: 16B3 (antibody, mouse IgG2a, V domains shown)
VH: DVKLVESGGGLVQPGGSLKLSCTASGFTFSGYTMSWVRQTPEKRLELVAEISFARDRAFYPDTVKGRFTISRDNAKNTLYLQMSSLKSEDTAMYYCTRLGGRNHDYWYFDVWGTGTTVTVSS
VL: DIVLTQSPTSLAVSPGQRATISCRASESVEYYGTSLMQWYQQKPGQRPQLLIYAASNVESGVPARFSGSGSGTDFSLNIHPVEEDDIAVYFCQQSWKVPFTFGSGTKLEIK
notes: mouse IgG2a from hybridoma; also called 16B3 (mouse mAb)
Neutralizing activity IC50 (baboon EL [1]): 3 nM | Neutralizing activity IC50 (cynomolgus monkey EL [2]): 1.9 nM | Neutralizing activity IC50 (rabbit EL): 6.3 nM | Neutralizing activity IC50 [3]: 1.3 nM | Neutralizing activity IC50 [12]: 1.3 nM | Neutralizing activity IC50 (cynomolgus monkey EL [13]): 1.8 nM | Kd (baboon EL [8]): 3.2 nM | koff (baboon EL [8]): 9.8e-05 s⁻¹ | kon (baboon EL [8]): 31000 M⁻¹ s⁻¹ | Kd (cynomolgus monkey EL [4]): 2.1 nM | koff (cynomolgus monkey EL [4]): 8.9e-05 s⁻¹ | kon (cynomolgus monkey EL [4]): 42000 M⁻¹ s⁻¹ | Kd [9]: 3.7 nM | koff [9]: 0.00019 s⁻¹ | kon [9]: 51000 M⁻¹ s⁻¹ | EC50 (read off the curve) (baboon EL [10]): ~5 ng/mL | EC50 (read off the curve) (cynomolgus monkey EL [5]): ~4 ng/mL | binding result (mouse EL): no binding (tested: about 330 ng/mL) | EC50 (read off the curve) [7]: ~3 ng/mL | EC50 (read off the curve) [11]: ~4 ng/mL

B4: 16E7 (antibody, mouse IgG1, V domains shown)
VH: B3 VH with D1E, T23A, G31S, A54T, D56S, T97A, R102N, H104Y
VL: B3 VL with P15L, Q49K, V89M
notes: mouse IgG1 from hybridoma
Neutralizing activity IC50 (baboon EL [1]): 2.1 nM | Neutralizing activity IC50 (cynomolgus monkey EL [2]): 2.5 nM | Neutralizing activity IC50 (rabbit EL): > 40 nM | Neutralizing activity IC50 [3]: 1.1 nM | Kd (baboon EL [8]): 4.7 nM | koff (baboon EL [8]): 0.00025 s⁻¹ | kon (baboon EL [8]): 53000 M⁻¹ s⁻¹ | Kd [9]: 1.1 nM | koff [9]: 0.0001 s⁻¹ | kon [9]: 95000 M⁻¹ s⁻¹ | EC50 (read off the curve) (cynomolgus monkey EL [5]): ~6 ng/mL | EC50 (read off the curve) [7]: ~6 ng/mL | EC50 (read off the curve) [11]: ~8 ng/mL
